{
  "source": "paper PMC3897949",
  "about": "“Dimeric structure of p300/CBP associated factor” (BMC Structural Biology, 2014)",
  "molecular_target": "the molecule itself",
  "experiment": "cross-linking; 1 mg/ml protein in 50 mM HEPES pH7.5, 50 mM sodium sulfate; DSS at 5X molar concentration, 1 h at room temperature; SDS-PAGE, coomassie blue",
  "data": [
    {"protein": "PCAF HAT domain (amino acids 493-658) L512A/M513A/V516A (domain or fragment, human, UniProt Q92831 493-658, looked up, p300/CBP associated factor (PCAF, KAT2B), human, HAT domain, residues 493-658; also called LMV512AAA) VIEFHVVGNSLNQKPNKKIAAWLAGLQNVFSHQLPRMPKEYITRLVFDPKHKTLALIKDGRVIGGICFRMFPSQGFTEIVFCAVTSNEQVKGYGTHLMNHLKEYHIKHDILNFLTYADEYAIGYFKKQGFSKEIKIPKTKYVGYIKDYEGATLMGCELNPRIPYTE", "values": [
      {"measurement": "binding result", "result": "binds"}
    ]},
    {"protein": "PCAF HAT domain (amino acids 493-658) L512D/V516D (domain or fragment, human, UniProt Q92831 493-658, looked up, p300/CBP associated factor (PCAF, KAT2B), human, HAT domain, residues 493-658; also called LV512DD) VIEFHVVGNSLNQKPNKKIDMWLDGLQNVFSHQLPRMPKEYITRLVFDPKHKTLALIKDGRVIGGICFRMFPSQGFTEIVFCAVTSNEQVKGYGTHLMNHLKEYHIKHDILNFLTYADEYAIGYFKKQGFSKEIKIPKTKYVGYIKDYEGATLMGCELNPRIPYTE", "values": [
      {"measurement": "binding result", "result": "binds"}
    ]},
    {"protein": "PCAF HAT domain (amino acids 493-658) L512D/V516D/F539A (domain or fragment, human, UniProt Q92831 493-658, looked up, p300/CBP associated factor (PCAF, KAT2B), human, HAT domain, residues 493-658; also called LVF512DDA) VIEFHVVGNSLNQKPNKKIDMWLDGLQNVFSHQLPRMPKEYITRLVADPKHKTLALIKDGRVIGGICFRMFPSQGFTEIVFCAVTSNEQVKGYGTHLMNHLKEYHIKHDILNFLTYADEYAIGYFKKQGFSKEIKIPKTKYVGYIKDYEGATLMGCELNPRIPYTE", "values": [
      {"measurement": "binding result", "result": "binds"}
    ]},
    {"protein": "PCAF HAT domain (amino acids 493-658) F539A (domain or fragment, human, UniProt Q92831 493-658, looked up, p300/CBP associated factor (PCAF, KAT2B), human, HAT domain, residues 493-658) VIEFHVVGNSLNQKPNKKILMWLVGLQNVFSHQLPRMPKEYITRLVADPKHKTLALIKDGRVIGGICFRMFPSQGFTEIVFCAVTSNEQVKGYGTHLMNHLKEYHIKHDILNFLTYADEYAIGYFKKQGFSKEIKIPKTKYVGYIKDYEGATLMGCELNPRIPYTE", "values": [
      {"measurement": "binding result", "result": "binds"}
    ]}
  ]
}
